Assay results from the domain aggregation screens of Martell et al. (2025).

Test: soluble fraction after stress (log2 fold change); higher = more stays soluble; pooled small domains, quantitative proteomics
Details: stress: 75 degC
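Note: 20 min heating vs room temperature control held 20 min.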

Sequence	soluble fraction (log2)
HMEFQSIGGKIRIGREREHLTQAELAQKLSVTRQAVSNWERDKTLPDIYMIREIAEIFGLTLDEFMEGAKK	-1.02
HMEGDAFAFTGDIQKDLLSITAVHPMRREAVDALIAKAGASWAIVEKLLAHGELTEAKHDGHLFYLRKF	-1.19
HMEGIAEILPASVRQKYGLIGLYDALRGLHFPGNMEEIKAARQRLAFEDTLMFSLTLSMMQYS	-0.146
HMEGIAYDINTAPEHIDLKAEDMMATFNIGKTALWRWVKQKILPPPYEYRSQAAHWTIGQIRDWKTA	-0.125
HMEGLDDKTKIILFAGDKKEQEYSLADLKSKLNITENLTESELIKLLEKQGYVLDVNANNEFMFKKD	-0.012
HMEGNFFADIRQELMRELDQEAEWSDVQILEKIDDLVLLRTRRSSLTVNEKEQLRKELFYSVRK	-0.345
HMEGRTVMATTAVNVRSGPGTSYKILGVLYPGHTAQQIGNTRYGWAQVTWKGHTAYIAARYLRDS	-2.71
HMEGSLQEDKVKEYQDRFKEELSNDLNTANSITVLYDLIKDDTLNGTTKRYLIEDFDKILSLDLIKE	0.167
HMEGSVTVMVNGESVTMTGKQNYIFVDVFDWYSFDLSAGKGRAIATLVNGKEAEFSQPLANGDNIELYWKE	-2.15
HMEGTAAAVALKGLMEQSGVDLREVMAAVESRGYYPKGTPFENYDPAFVSGVLVGAWDQVYKMILDQRPIP	-0.692
HMEGVSPQTVQEHIRRFIAAEDPASPLSDEALREALGNLGINASRRTVAKYRGEMGIPSSAQRKR	-0.0573
HMEGVSSESVKEMLKSIIDGEDPHNPVSDQRITDILNSRGINISRRTVAKYRDELGIASSSRRKRY	0.298
HMEGYLYLSESQNELILKNLKTPLKYNLYNASGKLIKKGNIKNTLDISELPKGVYIFTSSDNSFSKKFLKT	-1.55
HMEHAETDTRERILVVAERLFRQLGYQKTTVADIAKELRMSPANVYRFFDSKKSIHEGVARTL	-0.896
HMEHETTQLELNAPGQRLDAALALALPDTSRAQIQQWIKQGLVTDQAGTALLQASLKLKSPLNVVLQRPI	-0.215
HMEHIDVSGRAFDVSVSRLKRARRLTMRIDTHKQLVKISAPLHVESSTIRAFLARNQNWLEQQVEKR	-0.839
HMEHLTATERHLVAYLEAHLGQVPSLSITKLSQEANVSTASIVRTMKKLGYDGFTAFKHAIKQQLR	-2.67
HMEHTPHGVALLRTLMDQYGLKAADLANELGSKSNVSNILNGRRALTVSHIKMLAERFNLPADAFI	-1.33
HMEIALNDKQILLFSNKLVHEPSFASKYSKVGESYDDFAIRISENLTIPDKVQEYLPYLEKVGFNI	-0.622
HMEIDDPWLILGINAGSSIEIAQKAWKDLASQNHPDKLIANGVPKELLGMANEKLAIINGAYDKILKAHKI	-0.295
HMEIETPEIRAIHDLLELLANKAKKPEQEQFVQAHPEVQWAKVEANKNGTFAVGKVKAYLKTLQA	-0.39
HMEIGNVIAKLRVSNGLNQREFAKKLEVSNGAVAMWETNKRQPDLEMIKKISNLFDVPTDYILGAGTFQ	-0.838
HMEIIFVEHKVRPGESVWLIARKYKVKKNHILAVNNLSEKSIIRPKQILKIPTSGYDQYKKSVE	-3.79
HMEIIMIVITKPSITDERIAEIVAVIERNGGVQAHVSKGTDRTVIGIIGKAEPTLAEHLRQMKGVENVIKI	-1.33
HMEIPMRDKLKTYIDYLFAGAPQTAATAETKAEILQNTLDKYDDLIAEGKTPEAAYSLAVSGIGDLGDF	-0.179
HMEIPTEEILKQKLYYSISEVASWFKVNTSLLRYWENEFDILQPRKTRKGDRLFRVEDIKNLQLIYLL	0.26
HMEITGKYKAKEDIKLKVIPLISSLDLQDIKQNTELEVKDTMNNWAYVTVQEKQGWVVLEKIEKVE	-0.631
HMEITTLTGVLGAGRLDSALAAALPQYSRARIQALISDAALRINGQVVADAGSKKMSGQTFELNIPAPVP	-0.594
